Laboratory results: patent publication US20090270312A1, “HIV-I GP41 FUSION PEPTIDES FOR IMMUNOMODULALTION” (priority 2005, published 2009)

Biological target: TCR on the membrane of A2b T cells (rat)
Experiment: acceptor-photobleaching FRET; distance is between Rho on the peptide and FITC on the anti-TCR antibody

With AVGIGALFLGFLGAAGSTMGARSMTLTVQARQL (modifications not checked) [FP (full length) conjugated to Rhodamine] the donor-acceptor distance inferred from FRET was < 50 Å.
